How the values were obtained:
[1] = test system: non-alcoholic hepatitis model; test: High-fat diet-induced non-alcoholic steatohepatitis model, liver gene expression; assay type: in vivo, C57BL/6J mice; conditions: RT-qPCR; vs PBS buffer group
Procedure: A non-alcoholic hepatitis model was induced by feeding a high-fat diet to 8-week-old SPF male C57BL/6J mice. The experiment for groups administered with Amuc_1409 and PEP001 to PEP005 was performed as follows. Mice fed a high-fat diet for 45 weeks were fed a high-fat diet for an additional 3 weeks, and Amuc_1409 was dissolved in PBS buffer at a concentration of 2.4 μM and then orally administered to the mice by 150 μL per animal at the same time once a day until the end of the experiment, or mice fed a high-fat diet for 8 weeks were fed a high-fat diet for an additional 3 weeks, and PEP001, PEP002, PEP003, PEP004, or PEP005 was dissolved in PBS buffer at a concentration of 2.4 μM and then orally administered to the mice by 150 μL per animal at the same time once a day until the end of the experiment. To the control group, PBS buffer was orally administered in the same manner. The experiment for groups administered with PEP006 to PEP013 was performed as follows. The non-alcoholic hepatitis model was induced by ad libitum feeding of a high-fat diet for 32, 50, or 53 weeks. Mice fed a high-fat diet for 50 weeks were fed a high-fat diet for an additional 3 weeks, and a novel tetrapeptide PEP006, PEP007, PEP008, PEP009, or PEP010 was dissolved in PBS buffer at a concentration of 0.2 μg/150 μL and then orally administered to the mice by 150 μL per animal at the same time until the end of the test, and mice fed a high-fat diet for 53 weeks were fed a high-fat diet for an additional 3 weeks, and a novel […] PEP011, PEP012, or PEP013 was dissolved in PBS buffer at a concentration of 0.2 μg/150 μL and then orally administered to the mice by 150 μL per animal at the same time until the end of the test. To the control group, PBS buffer was orally administered in the same manner. At the end of the experiment, a part of the liver harvested was homogenized with Trizol to extract RNA. Reverse transcriptase was added to the obtained RNA and reacted to synthesize cDNA, and SYBR Green and primers were added to perform quantitative real-time PCR (RT-qPCR), and then the expression levels of genes such as Tnfα, Il-1β, Il-10, and Il-1rn were quantified.

[2] = test system: animal model of metabolic disease accompanied by obesity/diabetes and chronic inflammation; test: High-fat diet obesity/diabetic metabolic disease model; assay type: in vivo, C57BL/6J mice
Procedure: An animal model of metabolic disease accompanied by obesity/diabetes and chronic inflammation was induced by feeding a high-fat diet.
The experiment in the groups administered with Amuc_1409 or PEP001 to PEP005 was performed using 8-week-old SPF male C57BL/6J mice, and the metabolic disease accompanied by obesity/diabetes and chronic inflammation was induced by ad libitum feeding of a high-fat diet for 45 weeks or 8 weeks. Specifically, mice fed a high-fat diet for 45 weeks were fed a high-fat diet for an additional 3 weeks, and Amuc_1409 was dissolved in PBS buffer at a concentration of 2.4 μM and then orally administered to the mice by 150 μL per animal at the same time once a day until the end of the experiment, or mice fed a high-fat diet for 8 weeks were fed a high-fat diet for an additional 3 weeks, and PEP001, PEP002, PEP003, PEP004, or PEP005 was dissolved in PBS buffer at a concentration of 2.4 μM and then orally administered to the mice by 150 μL per animal at the same time once a day until the end of the experiment. To the control group, PBS buffer was orally administered in the same manner.
For the experiment in the groups administered with PEP006 to PEP013, 8-week-old male C57BL/6J mice were used, and the metabolic disease accompanied by obesity/diabetes and chronic inflammation was induced by ad libitum feeding of a high-fat diet for 32, 50, or 53 weeks. Mice fed a high-fat diet for 32 weeks were fed a high-fat diet for an additional 3 weeks, and a novel tetrapeptide PEP006 was dissolved in PBS buffer at a concentration of 0.15 μg/150 μL (PEP006) and then orally administered to the mice by 150 μL per animal at the same time until the end of the test, mice fed a high-fat diet for 50 weeks were fed a high-fat diet for an additional 3 weeks, and a novel tetrapeptide PEP007, PEP008, PEP009, or PEP010 was dissolved in PBS buffer at a concentration of 0.2 μg/150 μL (PEP007 to PEP013) and then orally administered to the mice by 150 μL per animal at the same time until the end of the test, and mice fed a high-fat diet for 53 weeks were fed a high-fat diet for an additional 3 weeks, and a novel […] PEP011, PEP012, or PEP013 was dissolved in PBS buffer at a concentration of 0.2 μg/150 μL (PEP007 to PEP013) and then orally administered to the mice by 150 μL per animal at the same time until the end of the test. To the control group, PBS buffer was orally administered in the same manner.
For all animals, general symptoms were observed immediately before administration at the start of administration, and the body weight was measured until the end of the test after group separation.
Insulin (Humalog, 1 unit/kg) was intraperitoneally injected into mice fasted for 4 hours at 2 weeks after the start of test substance administration (2 weeks in groups administered with Amuc_1409 and PEP001 to PEP005 and 3 weeks in groups administered with PEP006 to PEP013), and then blood glucose at 30 minutes, 60 minutes, 90 minutes, and 120 minutes was measured from a small amount of blood obtained through a wound at the tip of the tail using ACCU-CHECK (Roche), thereby performing an insulin tolerance test (ITT).
At the end of the test, fasting blood glucose was measured from a small amount of blood obtained through a wound at the tip of the tail of the mouse fasted for 16 hours using ACCU-CHECK, and blood was collected from the orbital venous plexus using a heparin-treated capillary tube. The collected blood was immediately centrifuged at 10,000 rpm (4° C.) for 10 minutes to separate plasma, and then subjected to analysis of total cholesterol (TC) and low-density lipoprotein cholesterol (LDL-C), which are blood abnormal lipid indicators, using an automated blood biochemical analyzer.

B1: Amuc_1409: SEQ ID NO: 15, functional fragment obtained by eliminating the leader sequence from SEQ ID NO: 14; protein derived from Akkermansia muciniphila (protein)
chain: IPESSVPAAAVSSIKGAYPNAGPIEWDSEMHGMERIYEAEFRINGFQFDVKIAPDGKIVRIKEEIAASSLPEAVRASVLKRYPGCRIKEAEKITEGELVRYKVEVADSRDDYDVLIAPDGNILHVDR
modifications: Amuc_1409_fragment
notes: protein derived from Akkermansia muciniphila
- 11-10, which is an anti-inflammatory index (liver gene expression) [1]: significantly increased
- Il-1p gene expression in liver tissue [1]: significantly decreased
- Il-1rn, additional anti-inflammatory index (liver gene expression) [1]: significantly increased
- fasting blood glucose ([2]; after fasting for 16 hours at the end of the test): significantly decreased
- blood glucose in insulin resistance experiment (ITT) ([2]; after insulin administration, time as stated in the value, vs PBS buffer group): decreased from 30 minutes to 120 minutes after insulin administration
- body weight ([2]; oral, 3 weeks on high-fat diet, vs PBS buffer group): decreased from the initial body weight
- maintenance of the decreased blood glucose in insulin resistance experiment ([2]; until 120 minutes after insulin): significantly maintained until 120 minutes
- AUC value of the insulin resistance experiment ([2]; vs PBS buffer group): decreased close to a significant level
- abdominal fat ([2]; vs PBS buffer group): significantly decreased

Source: patent US20240209022A1, “NOVEL PEPTIDE HAVING ANTI-INFLAMMATORY AND TISSUE REGENERATIVE ACTIONS” (KOREA RESEARCH INSTITUTE OF BIOSCIENCE AND BIOTECHNOLOGY, priority 2020, published 2024)
